Laboratory results: paper PMC9935876, “Structure of the planar cell polarity cadherins Fat4 and Dachsous1” (Nature Communications, 2023)
Several values for one entry are separate records, joined by “and”; a condition that tells them apart may be missing. Identical values can stand only once.

T1: Human Fat4(EC1-4) (human, UniProt Q6V0I7 43-475)
T1 construct: Fat4, human, EC1-EC4, aa43-475; Tags were cleaved only for the constructs meant for co-crystallisation; nothing is said for ITC; also called Fat4 EC1–EC4
T1 sequence: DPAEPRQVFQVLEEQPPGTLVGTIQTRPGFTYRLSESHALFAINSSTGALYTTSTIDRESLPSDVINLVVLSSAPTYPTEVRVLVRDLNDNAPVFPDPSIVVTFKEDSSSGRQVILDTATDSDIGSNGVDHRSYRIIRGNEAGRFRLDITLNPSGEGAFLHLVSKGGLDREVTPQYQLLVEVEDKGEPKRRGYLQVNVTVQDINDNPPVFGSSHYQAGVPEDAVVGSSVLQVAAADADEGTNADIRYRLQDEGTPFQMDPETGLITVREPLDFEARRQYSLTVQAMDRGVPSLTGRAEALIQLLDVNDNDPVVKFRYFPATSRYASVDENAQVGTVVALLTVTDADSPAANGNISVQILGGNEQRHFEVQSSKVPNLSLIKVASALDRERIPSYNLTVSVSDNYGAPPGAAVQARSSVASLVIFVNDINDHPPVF

T2: Human Fat4F358A(EC1-4) (human, UniProt Q6V0I7 43-475, F358A)
T2 construct: Fat4, human, EC1-EC4, aa43-475, with F358A in EC4
T2 sequence: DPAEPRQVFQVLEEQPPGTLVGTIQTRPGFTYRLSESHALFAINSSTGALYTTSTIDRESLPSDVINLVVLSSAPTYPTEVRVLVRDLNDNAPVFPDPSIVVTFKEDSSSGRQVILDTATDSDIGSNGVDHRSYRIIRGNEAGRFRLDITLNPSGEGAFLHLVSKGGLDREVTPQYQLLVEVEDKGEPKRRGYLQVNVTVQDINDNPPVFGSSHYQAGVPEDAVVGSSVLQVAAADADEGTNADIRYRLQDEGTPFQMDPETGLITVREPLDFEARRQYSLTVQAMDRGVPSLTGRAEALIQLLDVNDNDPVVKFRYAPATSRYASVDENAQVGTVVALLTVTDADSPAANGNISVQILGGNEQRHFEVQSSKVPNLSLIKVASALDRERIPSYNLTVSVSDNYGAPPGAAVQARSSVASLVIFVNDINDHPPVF

B1: Human Dchs1(EC1-4) (domain or fragment)
chain: DPQAGSLDLQIDEEQPAGTLIGDISAGLPAGTAAPLMYFISAQEGSGVGTDLAIDEHSGVVRTARVLDREQRDRYRFTAVTPDGATVEVTVRVADINDHAPAFPQARAALQVPEHTAFGTRYPLEPARDADAGRLGTQGYALSGDGAGETFRLETRPGPDGTPVPELVVTGELDRENRSHYMLQLEAYDGGSPPRRAQALLDVTLLDINDHAPAFNQSRYHAVVSESLAPGSPVLQVFASDADAGVNGAVTYEINRRQSEGDGPFSIDAHTGLLQLERPLDFEQRRVHELVVQARDGGAHPELGSAFVTVHVRDANDNQPSMTVIFLSADGSPQVSEAAPPGQLVARISVSDPDDGDFAHVNVSLEGGEGHFALSTQDSVIYLVCVARRLDREERDAYNLRVTATDSGSPPLRAEAAFVLHVTDVNDNAPAF
notes: Dchs1 (Dachsous1), human, EC1-EC4, aa43-472; also called Dachsous1 EC1–EC4
B2: Human Dchs1F79A(EC1-4) (domain or fragment)
chain: DPQAGSLDLQIDEEQPAGTLIGDISAGLPAGTAAPLMYAISAQEGSGVGTDLAIDEHSGVVRTARVLDREQRDRYRFTAVTPDGATVEVTVRVADINDHAPAFPQARAALQVPEHTAFGTRYPLEPARDADAGRLGTQGYALSGDGAGETFRLETRPGPDGTPVPELVVTGELDRENRSHYMLQLEAYDGGSPPRRAQALLDVTLLDINDHAPAFNQSRYHAVVSESLAPGSPVLQVFASDADAGVNGAVTYEINRRQSEGDGPFSIDAHTGLLQLERPLDFEQRRVHELVVQARDGGAHPELGSAFVTVHVRDANDNQPSMTVIFLSADGSPQVSEAAPPGQLVARISVSDPDDGDFAHVNVSLEGGEGHFALSTQDSVIYLVCVARRLDREERDAYNLRVTATDSGSPPLRAEAAFVLHVTDVNDNAPAF
notes: Dchs1 (Dachsous1), human, EC1-EC4, aa43-472, with F79A in EC1

Columns and labels:
Test in all cases: ITC; MicroCal ITC200; Fat4 construct 30 µM in the sample cell, Dchs1 construct 300 µM as titrant; 20 °C; fitted with one set of sites; two independent experiments
Settings in all cases: both partners purified
[1] = target: T1, Human Fat4(EC1-4)
[2] = target: T2, Human Fat4F358A(EC1-4)
[3] = target: T1, Human Fat4(EC1-4); remark: listed apart in the source

Binder	Kd [1]	Kd [2]	Kd [3]
B1	488 nM and 463 nM	950 nM and 770 nM	–
B2	–	–	1560 nM and 2480 nM
